Reference: article doi:10.1101/2020.04.03.023861 (bioRxiv, 2020)

Biological target: the molecule itself
Assay: detergent-resistant band of doubled size on SDS-PAGE and western blot

B1: TMEM70-FLAG (natural protein, human, UniProt Q9BUB7 82-260, looked up)
chain: LNTPSDKSEDGRLIYTGNMARAVFGVKCFSYSTSLIGLTFLPYIFTQNNAISESVPLPIQIIFYGIMGSFTVITPVLLHFITKGYVIRLYHEATTDTYKAITYNAMLAETSTVFHQNDVKIPDAKHVFTTFYAKTKSLLVNPVLFPNREDYIHLMGYDKEEFILYMEETSEEKRHKDDK
For B1, the “stoichiometry N” value was 2.
